# Source: patent publication US20190284243A1, “BINDING PEPTIDES” (University of Copenhagen, priority 2016, published 2019)
# Bridge positions count the residues as written; N and C are the ends. Square brackets hold non-standard residues; d marks the D form. Ends that are not written are not given here. Aha = [N-]=[N+]=NCC[C@H](N)C(=O)O; Pra = C#CC[C@H](N)C(=O)O
# Legend:
# [1] = biological target: T1, glycine receptor binding site of gephyrin (peptide binding site) (Homo sapiens, UniProt Q9NQX3); experiment: Affinity of β-bodies to the gephyrin peptide binding site; conditions: compared with original peptide SEQ ID NO: 41
# T1 sequence (Q9NQX3 1-736): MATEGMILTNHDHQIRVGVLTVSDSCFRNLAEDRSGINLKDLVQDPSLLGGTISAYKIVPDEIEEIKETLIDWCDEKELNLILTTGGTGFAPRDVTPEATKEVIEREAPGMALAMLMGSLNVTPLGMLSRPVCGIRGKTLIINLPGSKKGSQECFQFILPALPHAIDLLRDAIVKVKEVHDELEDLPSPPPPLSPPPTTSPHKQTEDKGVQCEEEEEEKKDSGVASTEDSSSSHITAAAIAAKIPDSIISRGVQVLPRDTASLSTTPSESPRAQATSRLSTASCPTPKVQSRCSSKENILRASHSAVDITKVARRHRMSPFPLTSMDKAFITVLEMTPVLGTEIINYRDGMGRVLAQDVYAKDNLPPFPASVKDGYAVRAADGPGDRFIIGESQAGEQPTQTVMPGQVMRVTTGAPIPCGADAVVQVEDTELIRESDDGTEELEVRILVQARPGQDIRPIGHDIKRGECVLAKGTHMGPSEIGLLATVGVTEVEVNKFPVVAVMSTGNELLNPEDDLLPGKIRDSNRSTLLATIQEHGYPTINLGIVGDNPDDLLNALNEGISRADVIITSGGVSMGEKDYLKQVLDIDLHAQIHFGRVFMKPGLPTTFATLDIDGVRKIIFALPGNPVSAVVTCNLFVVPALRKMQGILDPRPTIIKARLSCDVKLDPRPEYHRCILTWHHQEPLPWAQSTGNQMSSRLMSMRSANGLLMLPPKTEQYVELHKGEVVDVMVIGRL
# Description: The following β-body TTVTGTLYPGTLLGFETT (SEQ ID NO: 41) underwent optimization via alanine scanning. The resulting 9 β-bodies were tested for their affinity to the glycine receptor binding site of gephyrin (peptide binding site). The affinity of the original peptide could be improved and optimized β-bodies were found having the following sequences CTVTGTLYPGTLLGFETC (SEQ ID NO: 42) and TTVTGTLYPGTLLGAATT (SEQ ID NO: 43).
# Il1 [2] = experiment: Binding of β-bodies with the target compound (Table 1), Il1; conditions: Purpose Il1; tested for binding with the target compound
# Interleukin 1 = experiment: Sandwich binding assay on PEGA beads, IL1 model
# Description: (§1) For sandwich assays β-bodies identified as described in Examples 1 and 2 were synthesized by standard Fmoc-based solid phase peptide synthesis on biocompatible PEGA-beads (e.g. PEGA1900 which has a porosity allowing penetration of proteins up to 70 kDa). PEGA beads are available from Sigma Aldrich.
# The intensity of the fluorescence is a measure of the concentration of IL1 and the affinity of the interaction.
# GFP = GFP 60 nM, both bead types incubated at the same time
# Description: GFP (60 nM) was incubated with different β-body beads at the same time, a first type of β-body beads specific for GFP (β-body SEQ ID NO: 1;
# […]) and a second type of β-body beads specific for IL1 (β-body SEQ ID NO: 5).
# Il1 [3] = experiment: Selectivity assay GFP vs. IL1: beads incubated with ROX-IL1; format: binding; conditions: ROX-IL1 100 nM, both bead types incubated at the same time
# Description: The same experiment was repeated with IL1.
# interleukin 6 = interleukin 6 (Homo sapiens, UniProt P05231); experiment: Sandwich binding assay on PEGA beads, IL6 model
# Chain of interleukin 6 (P05231 30-212, species assumed): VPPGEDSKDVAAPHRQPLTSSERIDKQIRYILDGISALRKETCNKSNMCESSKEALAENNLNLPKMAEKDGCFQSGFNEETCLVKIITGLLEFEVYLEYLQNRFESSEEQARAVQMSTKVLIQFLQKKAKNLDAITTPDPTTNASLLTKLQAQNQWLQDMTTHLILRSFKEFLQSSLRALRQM
# Description: as §1
# The sandwich binding assay was performed as follows: two beads with ligand E prepared as described above were contained in separate wells and were added to 50 μL MilliQ water in a microtiter well containing 100 nM of the peptide F. […]
# The beads were washed twice with PBS to improve signal to noise. The well was imaged with an ICX73 fluorescence microscope (Olympus) using a ROX filter cube.
# POI = experiment: Screening of OBOC β-body library with AMC-labelled POI; format: binding; conditions: POI 10 nM, 2 h incubation; site of interaction not determined
# Description: The library of K(TX)4PG(XT)4EG was synthesized on HMBA-PEGA1900 resin by the split—mix method essentially as described in Christensen et al, 2003 and was deprotected with 95% TFA. The POI was dissolved in phosphate buffer at pH 7.5, labeled with aminomethylcoumarin using AMC-(CH2)3—CO—OSu (4 eqv, 30 min) and purified by FPLC. […] The protein was dissolved at 100 nM concentration and the library was incubated for 2 h with this solution at 10 fold dilution (10 nM). The library was inspected under a ICX73 fluorescence microscope using a […]. Beads with strong AMC-fluorescence were collected in separate Eppendorph tubes using a microsyringe. The beads were washed and 5% triethylamine in water was added. After incubation overnight the supernatant was transferred to another eppendorph tube and the bead was washed with 70% acetonitril/water. The combined solutions were concentrated to dryness twice using a speedvacc and the residue dissolved in 50% acetonitrile/water. […] The site of interaction on the POI was not determined.
# Il2 = Il2 (Homo sapiens, UniProt P60568); experiment: Binding of β-bodies with the target compound (Table 1), Il2; conditions: Purpose Il2; tested for binding with the target compound
# Chain of Il2 (P60568 21-153, species assumed): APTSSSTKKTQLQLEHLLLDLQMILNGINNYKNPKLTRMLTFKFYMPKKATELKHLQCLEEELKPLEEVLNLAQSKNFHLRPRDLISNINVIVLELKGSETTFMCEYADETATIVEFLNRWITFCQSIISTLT
# Interleukin 2 = Interleukin 2 (Homo sapiens, UniProt P60568); experiment: Sandwich binding assay on PEGA beads, IL2 model
# Chain of Interleukin 2 (P60568 21-153, species assumed): as above
# Description: as §1
# The sandwich binding assay was performed as follows: four beads with ligand C prepared as described above were added to 50 μL MilliQ water in a microtiter well containing 100 nM of the peptide D. The well was imaged with an ICX73 fluorescence microscope (Olympus) using a ROX filter cube.
# The intensity of the fluorescence is a measure of the concentration of IL2 and the affinity of the interaction. The result obtained after 3 min. incubation is shown in FIG. 10 and after 20 min. incubation in FIG. 1D.
# Gephyrin = biological target: T2, Gephyrin (Homo sapiens, UniProt Q9NQX3); experiment: Binding of β-bodies with the target compound (Table 1), Gephyrin; conditions: Purpose Gephyrin; tested for binding with the target compound
# T2 sequence (Q9NQX3 1-736): T1 sequence (Q9NQX3 1-736)
# Beads modified with (2) = experiment: Fluorescent β-bodies incubated with beads modified with (2); format: binding; conditions: for Kd: bead-(2) with fluorescent β-body; for Binding of fluorescent β-body to beads modified with (2): FIG. 8
# Description: (§2) A fluorescent probe was attached to (1), (2) AND (3). The fluorescent β-bodies were then incubated with: • Beads modified with NHAc; or • Beads modified with (1); or • Beads modified with (2).
# Beads modified with (1) = experiment: Fluorescent β-bodies incubated with beads modified with (1); format: binding; conditions: FIG. 8
# Description: as §2
# [4] = ligand 1 beads + 100 nM ligand 2, Interleukin 1 50 nM, 20 min
# [5] = ligand 1 beads + 100 nM ligand 2, without IL1 (interaction between the two β-bodies)
substance,measurement,setting,value
Abu(N3)-TVTGTLYPGTLLGFET-Pra ([Aha]TVTGTLYPGTLLGFET[Pra]; triazole 1-18 (inferred)) [SEQ ID NO: 44],affinity to the glycine receptor binding site of gephyrin,[1],unchanged
CTVTGTLYPGTLLGFETC (Designed peptide) [SEQ ID NO: 42],affinity to the glycine receptor binding site of gephyrin,[1],improved
EPraDTYTETYPGRTITWTIAbu(N3)DG (E[Pra]DTYTETYPGRTITWTI[Aha]DG; triazole 2-19 (inferred)) [SEQ ID NO: 9],Binding,Il1 [2],High
ETDTYTETYPGYTSTWTITD (Designed peptide) [SEQ ID NO: 5],ROX fluorescence accumulation in the beads,Interleukin 1; [4],positive signal
same,ROX fluorescence accumulation in the beads,"Interleukin 1; ligand 1 beads + 100 nM ligand 2, Interleukin 1 50 nM, 20 min, listed as A",accumulation of significant ROX fluorescence
same,ROX fluorescence accumulation in the beads,Interleukin 1; [5],no signal
same,ROX fluorescence accumulation in the beads,"Interleukin 1; ligand 1 beads + 100 nM ligand 2, without IL1 (interaction between the two β-bodies), listed as A",No fluorescence accumulation over background
same,Binding of β-body beads to GFP,GFP,only β-body beads specific for GFP underwent binding
same,Binding of β-body beads to IL1,Il1 [3],underwent binding
HTWTDTLTRPGYTVTHTLTL (Designed peptide) [SEQ ID NO: 17],ROX fluorescence accumulation in the bead,"interleukin 6; ligand 5 bead + 100 nM ligand 6, interleukin 6 20 nM, 20 min, listed as E",accumulation of significant ROX fluorescence
same,ROX fluorescence accumulation in the bead,"interleukin 6; ligand 5 bead + 100 nM ligand 6, interleukin 6 20 nM, 20 min, listed as ligand 5",positive signal
same,ROX fluorescence accumulation in the bead,"interleukin 6; ligand 5 bead + 100 nM ligand 6, without IL6 (interaction between the two β-bodies), listed as E",No fluorescence accumulation over background
same,ROX fluorescence accumulation in the bead,"interleukin 6; ligand 5 bead + 100 nM ligand 6, without IL6 (interaction between the two β-bodies), listed as ligand 5",no signal
KTGTQNLTGPGRTHTQTATEG (Designed peptide; PEPTIDE (1)..(21) GFP) [SEQ ID NO: 3],Binding of library beads to AMC-labelled POI (AMC-fluorescence),POI,strong binding
KTQTYNGTGPGRTGTVTYTEG (Designed peptide) [SEQ ID NO: 55],Binding of library beads to AMC-labelled POI (AMC-fluorescence),POI,strong binding
KTYTYNYTGPGRTSTATLTEG (Designed peptide) [SEQ ID NO: 56],Binding of library beads to AMC-labelled POI (AMC-fluorescence),POI,strong binding
NTVTNTMTRPGVTETVTQTD (Designed peptide) [SEQ ID NO: 15],Binding,Il2,High
same,ROX fluorescence accumulation in the beads,"Interleukin 2; ligand 3 beads + 100 nM ligand 4, Interleukin 2 50 nM, 3 and 20 min",positive signal
same,ROX fluorescence accumulation in the beads,"Interleukin 2; ligand 3 beads + 100 nM ligand 4, Interleukin 2 50 nM, 3 and 20 min, listed as C",accumulation of significant ROX fluorescence
same,ROX fluorescence accumulation in the beads,"Interleukin 2; ligand 3 beads + 100 nM ligand 4, without IL2 (interaction between the two β-bodies)",no signal
same,ROX fluorescence accumulation in the beads,"Interleukin 2; ligand 3 beads + 100 nM ligand 4, without IL2 (interaction between the two β-bodies), listed as C",No fluorescence accumulation over background
Pra-ITKTARYTMPGKTLTKTGTL-Abu(N3)-G ([Pra]ITKTARYTMPGKTLTKTGTL[Aha]G; triazole 1-22 (inferred)) [SEQ ID NO: 46],Binding,Gephyrin,Medium
Pra-TVTGTLYPGTLLGFET-Abu(N3) ([Pra]TVTGTLYPGTLLGFET[Aha]; triazole 1-18 (inferred)) [SEQ ID NO: 34],affinity to the glycine receptor binding site of gephyrin,[1],unchanged
Pra-YTYTDTTPGVTRTLTWG-Abu(N3)-OH ([Pra]YTYTDTTPGVTRTLTWG[Aha]-OH; triazole 1-19 (inferred)) [SEQ ID NO: 38],Binding,Gephyrin,Medium
PraTWTLTHTPGTMEITET-Abu(N3)-OH ([Pra]TWTLTHTPGTMEITET[Aha]-OH; triazole 1-18 (inferred)) [SEQ ID NO: 39],Binding,Gephyrin,Medium
TFTFTFPGLTRTHT [SEQ ID NO: 59],Kd,Beads modified with (2),5 µM
TITKTARYTMPGKTLTKTGTLTG (Designed peptide) [SEQ ID NO: 45],Binding,Gephyrin,Medium
TKTDRVTEPGRTMTFTGT (Designed peptide) [SEQ ID NO: 7],ROX fluorescence accumulation in the beads,Interleukin 1; [4],positive signal
same,ROX fluorescence accumulation in the beads,"Interleukin 1; ligand 1 beads + 100 nM ligand 2, Interleukin 1 50 nM, 20 min, listed as B",accumulation of significant ROX fluorescence
same,ROX fluorescence accumulation in the beads,Interleukin 1; [5],no signal
same,ROX fluorescence accumulation in the beads,"Interleukin 1; ligand 1 beads + 100 nM ligand 2, without IL1 (interaction between the two β-bodies), listed as B",No fluorescence accumulation over background
TMTDTDTYPGFTDTLTHA (Designed peptide) [SEQ ID NO: 16],ROX fluorescence accumulation in the bead,"interleukin 6; ligand 5 bead + 100 nM ligand 6, interleukin 6 20 nM, 20 min",positive signal
same,ROX fluorescence accumulation in the bead,"interleukin 6; ligand 5 bead + 100 nM ligand 6, interleukin 6 20 nM, 20 min, listed as F",accumulation of significant ROX fluorescence
same,ROX fluorescence accumulation in the bead,"interleukin 6; ligand 5 bead + 100 nM ligand 6, without IL6 (interaction between the two β-bodies)",no signal
same,ROX fluorescence accumulation in the bead,"interleukin 6; ligand 5 bead + 100 nM ligand 6, without IL6 (interaction between the two β-bodies), listed as F",No fluorescence accumulation over background
TTVTGTLYPGTLLGAATT (Designed peptide) [SEQ ID NO: 43],affinity to the glycine receptor binding site of gephyrin,[1],improved
TTYTYPGDTFTI (Designed peptide) [SEQ ID NO: 58],Binding of fluorescent β-body to beads modified with (2),Beads modified with (2),high affinity
same,Binding of fluorescent β-body to beads modified with (1),Beads modified with (1),best bind
TWTETYTWTEPGDTQTLTITNT (Designed peptide) [SEQ ID NO: 11],Binding,Il1 [2],High
TYTYTYPGLTRTHT [SEQ ID NO: 57],Binding of fluorescent β-body to beads modified with (2),Beads modified with (2),best bind
same,Kd,Beads modified with (2),0.7 µM
same,Binding of fluorescent β-body to beads modified with (1),Beads modified with (1),high affinity
